Results reported in the RNAGym collection of RNA variant scans (doi:10.7554/elife.90254).

B1: LINE1-mini (parent)
chain: GGCAGAGCUCAACACAGCGUGGCAAAGUGGCUGUGGCUAGACUGCC

Variants of: B1
Experiment: self-cleavage, relative activity (ratio to wild type); higher = more cleavage; in vitro, sequencing; the parent is a self-cleaving ribozyme

Q: Which self-cleavage does the source give for G7A C13A here?
A: 0.45

Q: For G7A C13G, which self-cleavage is on record?
A: 0.26

Q: With G7A C13U as the variant, how does the self-cleavage read?
A: 0.29

Q: With G7A A14U as the variant, how does the self-cleavage read?
A: 0.16

Q: Which self-cleavage does the source give for G7A A14C here?
A: 0.5

Q: Which self-cleavage does the source give for G7A A14G here?
A: 0.24

Q: With G7A U9G as the variant, how does the self-cleavage read?
A: 0.08

Q: For G7A U9C, which self-cleavage is on record?
A: 0.04

Q: With G7A U9A as the variant, how does the self-cleavage read?
A: 0.3

Q: For A6U C45U, which self-cleavage is on record?
A: 1.18

Q: With A6U C45G as the variant, how does the self-cleavage read?
A: 0.3

Q: For A6U C45A, which self-cleavage is on record?
A: 0.66

Q: For G7A U38G, which self-cleavage is on record?
A: 0.02

Q: Which self-cleavage does the source give for G7A U38C here?
A: 0.1

Q: For G7A U38A, which self-cleavage is on record?
A: 0.09

Q: Which self-cleavage does the source give for G7C A25G here?
A: 0.06

Q: With G7C A25C as the variant, how does the self-cleavage read?
A: 0.14

Q: With G7C A25U as the variant, how does the self-cleavage read?
A: 0.16

Q: For G7C A41U, which self-cleavage is on record?
A: 0.21

Q: With G7C A41C as the variant, how does the self-cleavage read?
A: 0.09

Q: With G7C A41G as the variant, how does the self-cleavage read?
A: 0.04

Q: For G7C U34C, which self-cleavage is on record?
A: 0.06

Q: For G7C U34G, which self-cleavage is on record?
A: 0.02

Q: Which self-cleavage does the source give for G7C U34A here?
A: 0.05

Q: Which self-cleavage does the source give for G7A U34G here?
A: 0.14

Q: For G7A U34C, which self-cleavage is on record?
A: 0.09

Q: Which self-cleavage does the source give for G7A U34A here?
A: 0.1

Q: For G7A C37A, which self-cleavage is on record?
A: 0.18

Q: For G7A C37U, which self-cleavage is on record?
A: 0.11

Q: Which self-cleavage does the source give for G7A C37G here?
A: 0.05

Q: Which self-cleavage does the source give for A6U U20C here?
A: 0.3

Q: With A6U U20G as the variant, how does the self-cleavage read?
A: 0.55

Q: For A6U U20A, which self-cleavage is on record?
A: 0.37

Q: For G7C G17A, which self-cleavage is on record?
A: 0.07

Q: For G7C G17C, which self-cleavage is on record?
A: 0.1

Q: For G7C G17U, which self-cleavage is on record?
A: 0.09

Q: With G7C G40U as the variant, how does the self-cleavage read?
A: 0.26

Q: For G7C G40A, which self-cleavage is on record?
A: 0.13

Q: Which self-cleavage does the source give for G7C G40C here?
A: 0.05

Q: With G7A C8U as the variant, how does the self-cleavage read?
A: 0.43

Q: For G7A C8A, which self-cleavage is on record?
A: 0.35

Q: Which self-cleavage does the source give for G7A C8G here?
A: 0.17

Q: Which self-cleavage does the source give for G7C A12C here?
A: 0.03

Q: Which self-cleavage does the source give for G7C A12G here?
A: 0.06

Q: For G7C A12U, which self-cleavage is on record?
A: 0.07

Q: With G7A U43C as the variant, how does the self-cleavage read?
A: 0.25

Q: With G7A U43A as the variant, how does the self-cleavage read?
A: 0.15

Q: For G7A U43G, which self-cleavage is on record?
A: 0.57

Q: With G7C G29C as the variant, how does the self-cleavage read?
A: 0.05

Q: Which self-cleavage does the source give for G7C G29U here?
A: 0.13

Q: Which self-cleavage does the source give for G7C G29A here?
A: 0.13

Q: For G7A G30U, which self-cleavage is on record?
A: 0.24

Q: For G7A G30A, which self-cleavage is on record?
A: 0.24

Q: With G7A G30C as the variant, how does the self-cleavage read?
A: 0.42

Q: Which self-cleavage does the source give for G7C A16G here?
A: 0.06

Q: For G7C A16U, which self-cleavage is on record?
A: 0.3

Q: Which self-cleavage does the source give for G7C A16C here?
A: 0.11

Q: For G7A A26G, which self-cleavage is on record?
A: 0.24

Q: With G7A A26C as the variant, how does the self-cleavage read?
A: 0.18

Q: For G7A A26U, which self-cleavage is on record?
A: 0.21

Q: Which self-cleavage does the source give for G7A G19U here?
A: 0.11

Q: With G7A G19A as the variant, how does the self-cleavage read?
A: 0.26

Q: For G7A G19C, which self-cleavage is on record?
A: 0.09

Q: Which self-cleavage does the source give for G7C G22C here?
A: 0.08

Q: With G7C G22A as the variant, how does the self-cleavage read?
A: 0.11

Q: For G7C G22U, which self-cleavage is on record?
A: 0.12

Q: With G7A A11C as the variant, how does the self-cleavage read?
A: 0.03

Q: Which self-cleavage does the source give for G7A A11U here?
A: 0.03

Q: With G7A A11G as the variant, how does the self-cleavage read?
A: 0.02

Q: Which self-cleavage does the source give for G7C C13U here?
A: 0.14

Q: For G7C C13A, which self-cleavage is on record?
A: 0.11

Q: For G7C C13G, which self-cleavage is on record?
A: 0.18

Q: Which self-cleavage does the source give for G7C C23G here?
A: 0.1

Q: Which self-cleavage does the source give for G7C C23A here?
A: 0.09

Q: For G7C C23U, which self-cleavage is on record?
A: 0.1

Q: With G7A C15A as the variant, how does the self-cleavage read?
A: 0.19

Q: For G7A C15G, which self-cleavage is on record?
A: 0.12

Q: With G7A C15U as the variant, how does the self-cleavage read?
A: 0.24

Q: With G7C C18G as the variant, how does the self-cleavage read?
A: 0.09

Q: Which self-cleavage does the source give for G7C C18A here?
A: 0.12

Q: Which self-cleavage does the source give for G7C C18U here?
A: 0.19

Q: With G7A A12G as the variant, how does the self-cleavage read?
A: 0.05

Q: Which self-cleavage does the source give for G7A A12U here?
A: 0.15

Q: Which self-cleavage does the source give for G7A A12C here?
A: 0.02

Q: For G7C C8G, which self-cleavage is on record?
A: 0.29

Q: For G7C C8A, which self-cleavage is on record?
A: 0.32

Q: With G7C C8U as the variant, how does the self-cleavage read?
A: 0.2

Q: With G7C A14G as the variant, how does the self-cleavage read?
A: 0.08

Q: Which self-cleavage does the source give for G7C A14U here?
A: 0.15

Q: Which self-cleavage does the source give for G7C A14C here?
A: 0.23

Q: Which self-cleavage does the source give for G7A U28A here?
A: 0.16

Q: With G7A U28C as the variant, how does the self-cleavage read?
A: 0.11

Q: For G7A U28G, which self-cleavage is on record?
A: 0.16

Q: Which self-cleavage does the source give for G7A A16G here?
A: 0.28

Q: With G7A A16C as the variant, how does the self-cleavage read?
A: 0.13

Q: Which self-cleavage does the source give for G7A A16U here?
A: 0.32

Q: Which self-cleavage does the source give for A6U C42A here?
A: 0.17

Q: For A6U C42U, which self-cleavage is on record?
A: 0.42

Q: Which self-cleavage does the source give for A6U C42G here?
A: 0.05

Q: For A6U G35A, which self-cleavage is on record?
A: 0.12

Q: For A6U G35U, which self-cleavage is on record?
A: 0.2

Q: For A6U G35C, which self-cleavage is on record?
A: 0.16

Q: For G7C U9G, which self-cleavage is on record?
A: 0.28

Q: For G7C U9A, which self-cleavage is on record?
A: 0.09

Q: With G7C U9C as the variant, how does the self-cleavage read?
A: 0.03

Q: With A6U G19U as the variant, how does the self-cleavage read?
A: 0.46

Q: For A6U G19C, which self-cleavage is on record?
A: 0.45

Q: Which self-cleavage does the source give for A6U G19A here?
A: 0.64

Q: For G7A C18A, which self-cleavage is on record?
A: 0.07

Q: For G7A C18G, which self-cleavage is on record?
A: 0.19

Q: Which self-cleavage does the source give for G7A C18U here?
A: 0.12

Q: With G7U A16U as the variant, how does the self-cleavage read?
A: 0.12

Q: Which self-cleavage does the source give for G7U A16C here?
A: 0.09

Q: With G7U A16G as the variant, how does the self-cleavage read?
A: 0.16

Q: With G7C A39C as the variant, how does the self-cleavage read?
A: 0.21

Q: With G7C A39U as the variant, how does the self-cleavage read?
A: 0.15

Q: With G7C A39G as the variant, how does the self-cleavage read?
A: 0.08

Q: Which self-cleavage does the source give for G7A U20C here?
A: 0.07

Q: For G7A U20G, which self-cleavage is on record?
A: 0.06

Q: For G7A U20A, which self-cleavage is on record?
A: 0.12

Q: Which self-cleavage does the source give for G7C U28G here?
A: 0.08

Q: Which self-cleavage does the source give for G7C U28A here?
A: 0.18

Q: Which self-cleavage does the source give for G7C U28C here?
A: 0.1

Q: Which self-cleavage does the source give for G7A C23A here?
A: 0.15

Q: Which self-cleavage does the source give for G7A C23G here?
A: 0.21

Q: With G7A C23U as the variant, how does the self-cleavage read?
A: 0.11

Q: For G7C A24G, which self-cleavage is on record?
A: 0.12

Q: With G7C A24C as the variant, how does the self-cleavage read?
A: 0.09

Q: With G7C A24U as the variant, how does the self-cleavage read?
A: 0.19

Q: With G7C C15A as the variant, how does the self-cleavage read?
A: 0.14

Q: With G7C C15U as the variant, how does the self-cleavage read?
A: 0.14

Q: With G7C C15G as the variant, how does the self-cleavage read?
A: 0.08

Q: With A6U U28C as the variant, how does the self-cleavage read?
A: 0.74

Q: For A6U U28A, which self-cleavage is on record?
A: 0.4

Q: With A6U U28G as the variant, how does the self-cleavage read?
A: 0.6

Q: For G7U A14U, which self-cleavage is on record?
A: 0.11

Q: With G7U A14C as the variant, how does the self-cleavage read?
A: 0.09

Q: With G7U A14G as the variant, how does the self-cleavage read?
A: 0.15

Q: Which self-cleavage does the source give for G7U A12G here?
A: 0.04

Q: With G7U A12U as the variant, how does the self-cleavage read?
A: 0.07

Q: Which self-cleavage does the source give for G7U A12C here?
A: 0.02

Q: With G7C G21U as the variant, how does the self-cleavage read?
A: 0.08

Q: Which self-cleavage does the source give for G7C G21A here?
A: 0.2

Q: Which self-cleavage does the source give for G7C G21C here?
A: 0.08

Q: With G7A C42G as the variant, how does the self-cleavage read?
A: 0.05

Q: With G7A C42U as the variant, how does the self-cleavage read?
A: 0.16

Q: Which self-cleavage does the source give for G7A C42A here?
A: 0.18

Q: Which self-cleavage does the source give for A6U G29C here?
A: 0.34

Q: With A6U G29U as the variant, how does the self-cleavage read?
A: 0.66

Q: Which self-cleavage does the source give for A6U G29A here?
A: 0.79

Q: With G7C C46A as the variant, how does the self-cleavage read?
A: 0.18

Q: For G7C C46U, which self-cleavage is on record?
A: 0.08

Q: Which self-cleavage does the source give for G7C C46G here?
A: 0.08

Q: For G7A G40C, which self-cleavage is on record?
A: 0.1

Q: With G7A G40U as the variant, how does the self-cleavage read?
A: 0.27

Q: Which self-cleavage does the source give for G7A G40A here?
A: 0.19

Q: With G7A A25U as the variant, how does the self-cleavage read?
A: 0.25

Q: For G7A A25G, which self-cleavage is on record?
A: 0.12

Q: With G7A A25C as the variant, how does the self-cleavage read?
A: 0.14

Q: Which self-cleavage does the source give for A6U G44C here?
A: 0.75

Q: Which self-cleavage does the source give for A6U G44U here?
A: 0.54

Q: Which self-cleavage does the source give for A6U G44A here?
A: 0.64

Q: Which self-cleavage does the source give for G7A G17C here?
A: 0.18

Q: With G7A G17A as the variant, how does the self-cleavage read?
A: 0.16

Q: With G7A G17U as the variant, how does the self-cleavage read?
A: 0.12

Q: With G7A A39G as the variant, how does the self-cleavage read?
A: 0.07

Q: For G7A A39C, which self-cleavage is on record?
A: 0.08
